According to patent US20050287518A1:

Columns and labels:
[1] = biological target: GFP-Rac1 fusion (EGFP mutant, 6His construct) bound to GTPγS [GFP: P42212]; test: FRET titration in solution: 200 nM GFP-Rac1-GTPγS, varied Alexa-PBD, Alexa/GFP emission ratio fit to Y=A*X/(Kd+X)
[2] = biological target: GFP-Rac1 fusion (EGFP mutant, 6His construct) bound to GTPγS [GFP: P42212]; test: FRET in solution at saturating (1 micromolar) Alexa-PBD, GFP-Rac1 loaded with varied GTPγS

Kd [1]: 1100 nM
fold change of corrected Alexa/GFP emission ratio [2]: 4 fold
Substance: Alexa-PBD (PBD, fragment of human PAK1, residues 65-150, with a single cysteine added in the penultimate N-terminal position, C-terminal 6His fusion, labeled with Alexa 546) (from UniProt Q13153 65-150)
